Here are results for 13 molecules from patent publication US20230242624A1 (NEURIMMUNE, published 2023).

Assay [1] deals with T1, SARS-CoV-2-S1 (RBD)-His protein (Trenzyme) (SARS-CoV-2, UniProt P0DTC2 319-541). The assay can be described thus: competition ELISA, RBD binding to coated ACE2.
The target in assay [2] is SARS-CoV-2 Spike (S) protein on vesicular stomatitis virus (VSV) pseudoviruses (SARS-CoV-2, UniProt P0DTC2 14-1273). The assay can be described thus: cell-based or functional assay.
Assay [3] concerns the target recombinant SARS-CoV Spike protein (RBD, His tag) (SARS-CoV, UniProt P59594 306-527). The assay can be described thus: iQue flow cytometry, antigen-coated beads. On the technique in general: In flow cytometry, cells or beads pass a laser one at a time.
Assay [4] concerns the target T1, SARS-CoV-2-S1 (RBD)-His protein …. Briefly: iQue flow cytometry, antigen-coated beads.
In assay [5] the target is T2, MERS-CoV Spike protein fragment (RBD, aa 367-606, His tag) (MERS-CoV, UniProt K9N5Q8 367-606).
T2 sequence: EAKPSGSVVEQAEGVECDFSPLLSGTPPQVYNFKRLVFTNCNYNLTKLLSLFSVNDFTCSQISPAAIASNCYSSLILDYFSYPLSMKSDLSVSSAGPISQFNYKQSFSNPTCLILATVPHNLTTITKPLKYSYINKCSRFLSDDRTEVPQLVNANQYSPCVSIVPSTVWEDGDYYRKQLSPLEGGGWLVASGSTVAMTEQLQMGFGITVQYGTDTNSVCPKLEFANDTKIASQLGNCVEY
The assay can be described thus: iQue flow cytometry, antigen-coated beads.

Assay [6] concerns the target T1, SARS-CoV-2-S1 (RBD)-His protein …. The assay can be described thus: competition ELISA, RBD binding to coated ACE2. This is another data set of the same source. For orientation: ELISA stands for enzyme-linked immunosorbent assay.
The target is the same in assay [7]. Briefly: direct ELISA on coated RBD-His.
Assay [8] concerns the target T3, BSA (Sigma-Aldrich) (bovine, UniProt P02769 25-607).
T3 construct: also called bovine serum albumin; BSA control
The assay can be described thus: direct ELISA on coated BSA.

Where “and” joins values, the source holds several entries; their conditions need not be identical. Equal values may be shown once. Read-outs that look alike come from different tables or passages of the source.

B1: NI-607.532_D3 IgG4 (antibody, V domains shown)
VH: EVQLVQSGAEVKRPGASVKVSCKASGYHFTDYYIHWVRQAPGQGLEWMGWINPNSGGTNYAQKFQGRVTMTRDTSISTAYMELSRLRSDDTAVYYCARVYYYDSSSSADYWGQGTLVTVSS
VL: not shown
Turning to B1, the IC50 (usually the concentration needed to halve the response being measured) in assay [1] is ~0.457 µg/mL and ~3 nM.

B2: NI-607.427_C5 (antibody, V domains shown)
VH: QVQLVQSGAEVKKPGASVKVSCKASGYTFTSYGISWVRQAPGQGLEWMGWISAYNGNTNYAQKLQGRVTMTTDTSTSTAYMELRSLRSDDTAVYYCARDNRAGWDQLDYWGQGTLVTVSS
VL: not shown
B2: the “IC50, pseudovirus entry assay (luciferase, HEK 293T-ACE2 cells)” value (“IC50, pseudovirus entry assay” for short) in assay [2] was more than 100 µg/mL. Also, the EC50 (in general, the concentration that produces a half-maximal response) turned out to be 3 nM in assay [3], 3.2 nM in assay [4], 600 nM in assay [5] and 0.014 nM in assay [7]. Besides, the concentration for half-maximal inhibition (IC50) in assay [6] is 2.88 nM; in assay [1] it was ~2.15 µg/mL and ~14.3 nM. In addition, the binding result in assay [8] is given as “no binding (tested: 400 nM)”.

B3: NI-607.532_F3 (antibody, V domains shown)
VH: EVQLVQSGAEVKKPGESLKISCKGFGYIFSNDWIGWVRQKPGKGLEWMGIIYPGDSDTRYSPSFRGQVTISADKSVSTAYLQWDSLKASDTAVYYCTRPRYTTMIVGSNPFDVWGQGTTVTVSS
VL: QSVLTQPPSVSGAPGQRVTISCTGSSSNIGGGYDVHWYQKLPGTAPKLLIFDNDNRPSGVPDRFSGSKSDTSASLTITGLQAEDEADYFCQSYDSSLSGSGVVFGGGTKLTVL
B3: the “IC50, pseudovirus entry assay” value in assay [2] stood at 11.7 µg/mL. In addition, the EC50 worked out at 1.3 nM in assay [3], 1.2 nM in assay [4], 1000 nM in assay [5] and 0.019 nM in assay [7]. The molecule further displayed an IC50 in assay [6] of 0.353 nM.

B4: NI-607.429_E4 (antibody, V domains shown)
VH: QVQLVESGGGLVQPGGSLRLSCAASGFTVSSNYMSWVRQAPGKGLEWVSVIYSGGSTFYADSVKGRFTISRDNSKNTLYLQMNSLRAEDTAVYYCARDLQESGMDVWGQGTTVTVSS
VL: DIQLTQSPSSVSASVGDRVTITCRASQGISSWLAWYQQKPGKAPKLLIYAASSLQSGVPSRFSGSGSGTDFTLTISSLQPEDFATYYCQQANSFPTFGQGTRLEIK
Regarding B4, the “IC50, pseudovirus entry assay” value in assay [2] came to 0.035 µg/mL. Also, the EC50 came out at 1.9 nM in assay [4], 200 nM in assay [5] and 0.0086 nM in assay [7]. For the same molecule, the IC50 in assay [6] was 0.275 nM; in assay [1] it was ~0.345 µg/mL and ~2.3 nM. For the same molecule, the binding result in assay [8] is reported as “no binding (tested: 400 nM)”.

B5: NI-607.532_C11 (antibody, V domains shown)
VH: QVQLVESGGGLIQPGGSLRLSCAASGFTVSSNYMSWVRQAPGKGLEWVSVIYSGGSTYYADSVKGRFTISRDNSKNTLFLQMNSLRAEDTAVYYCARDLQYYGMDVWGQGTTVTVSS
VL: DIQMTQSPSFLSASVGDRVTITCRASQGISSYLAWYQQKPGKAPKLLIYAASTLQSGVPSRFSGSGSGTEFTLTISSLQPEDFATYYCQQLDSYPPRDTFGQGTKVEIK
In the case of B5, the “IC50, pseudovirus entry assay” value in assay [2] was 0.0872 µg/mL. In addition, the EC50 in assay [4] came to 2.4 nM; in assay [5] it was 1000 nM; in assay [7], 0.013 nM. The 50% inhibitory concentration (IC50) was 0.826 nM in assay [6]; ~1.12 µg/mL and ~7.44 nM in assay [1]. Further, the binding result in assay [8] is on record as “no binding (tested: 400 nM)”.

B6: NI-607.429_E4 IgG4 (antibody, V domains shown)
VH: QVQLVESGGGLVQPGGSLRLSCAASGFTVSSNYMSWVRQAPGKGLEWVSVIYSGGSTFYADSVKGRFTISRDNSKNTLYLQMNSLRAEDTAVYYCARDLQESGMDVWGQGTTVTVSS
VL: DIQLTQSPSSVSASVGDRVTITCRASQGISSWLAWYQQKPGKAPKLLIYAASSLQSGVPSRFSGSGSGTDFTLTISSLQPEDFATYYCQQANSFPTFGQGTRLEIK
On to B6, for which the IC50 in assay [1] was ~0.699 µg/mL and ~4.65 nM.

B7: NI-607.429_B9 (antibody, V domains shown)
VH: EVQLVESGGGLVQPGGSLRLSCAASGFTFSSYWMSWVRQAPGKGLEWVANIKQDGSEKYYVDSVKGRFTISRDNAKNSLYLQMNSLRAEDTAVYYCASLFWRRGSFDPWGQGTLVTVSS
VL: QSVLTQPHSVSESPGKTVTISCTRSTGSIASNYVQWYQQRPGSAPTTVIYEDNQRPSGVPDRFSGSIDSSSNSASLTISGLKTEDEADYYCQSYDTSSYWVFGGGTKLTVL
Regarding B7, the “IC50, pseudovirus entry assay” value in assay [2] stood at 7.1 µg/mL. Moreover, the figures for the 50% effective concentration (EC50) in assay [4], in assay [5] and in assay [7] were 1.87 nM, 600 nM and 0.014 nM, respectively. This molecule also registered an IC50 in assay [6] of 0.074 nM. In assay [8], the binding result is reported as “no binding (tested: 400 nM)”.

B8: NI-607.532_B6 (antibody, V domains shown)
VH: QVQLVQSGAEVKKPGASVKVSCKASGYTFTSYDINWVRQATGQGLEWMGWMNPNSGNTGYAQKFQGRVTMTRNTSISTAYMELSSLRSEDTAVYYCARVVSLTGFFDYWGQGTLVTVSS
VL: SYELTQPPSVSVAPGKTARITCGGNNIGSKNVHWYQQKPGQAPVLVVYDDSDRPSGIPERFSGSNSGNTATLTISRVEAGDEADYYCQVWDSSSDPWVFGGGTKLTVL
For B8, the “IC50, pseudovirus entry assay” value in assay [2] turned out to be 100 µg/mL. Further, the EC50 stood at 4.2 nM in assay [3], 1.1 nM in assay [4], 1000 nM in assay [5] and 0.0045 nM in assay [7]. Besides, the binding result in assay [8] is reported as “no binding (tested: 400 nM)”.

B9: NI-607.426_F11 (antibody, V domains shown)
VH: QVQLVESGGGLVQPGGSLRLSCAASGFTFSSYWMSWVRQAPGKGLEWVANIKQDGSEKYYVDSVKGRFTISRDNAKNSLYLQMNSLRAEDTAVYYCARGLVGQWLGVDYWGQGTLVTVSS
VL: QSVLTQPHSVSESPGKTVTISCTGSSGSIASNYVQWYQQRPGSAPTTVIYEDNQRPSGVPDRFSGSIDSSSNSASLTISGLKTEDEADYYCQSYDSSNWVFGGGTKLTVL
For the molecule B9, the “IC50, pseudovirus entry assay” value in assay [2] is more than 100 µg/mL. Besides, the results for the EC50 in assay [4], in assay [5] and in assay [7] were 0.89 nM, 1000 nM and 0.017 nM, respectively. In assay [6], this molecule yielded an IC50 of 1.14 nM. In addition, the binding result in assay [8] is listed as “no binding (tested: 400 nM)”.

B10: NI-607.529_B9 (antibody, V domains shown)
VH: QVQLQESGPGLVKPSETLSLTCTVSGGSISSSSYYWGWIRQPPGKGLEWIGNIYYSGSTYYNPSLKSRVTISVDTSKNQFSLKLNSVTAADTAVYFCARLLWLRGSYYWGQGTLVTVSS
VL: SYELTQPHSVSESPGKTVTISCTGSSGSIASNYVQWYQQRPGSAPTTVIYEDNQRPSGVPDRFSGSIDSSSNSASLTISGLKTEDEADYYCQSYDSSNWVFGGGTKLTVL
Regarding B10, in assay [2], the “IC50, pseudovirus entry assay” value came to 1.9 µg/mL. Further, the EC50 in assay [3] amounted to 20 nM; in assay [4] it was 1 nM; in assay [5], 300 nM; in assay [7] it was 0.034 nM. In assay [6], this molecule had an IC50 of 0.116 nM. In assay [8], the binding result is given as “no binding (tested: 400 nM)”.

B11: NI-607.531_E7 (antibody, V domains shown)
VH: EVQLVESGGGVVQPGRSLRLSCAASGFTFNFYSMHWVRQVPGKGLEWVAVISFDGSTKHYAESLRGRFAVSRDNSKSTLYLQMNSLRPEDTAVYYCASPPLSPIPAAGTPLDYWGQGTLVTVSS
VL: EIVMTQSPDSLAVSLGERATINCKSSQSIFYRSDDKDFLAWYQQKPGQPPKLLISWASTRESGVPDRFSGSGSGTDFTLTISSLQAEDVAVYYCQQFYYTPFTFGPGTKLEIK
notes: also called F31 E7
With B11, in assay [2], the “IC50, pseudovirus entry assay” value was 3.9 µg/mL. For the same molecule, the EC50 in assay [3] came to 600 nM; in assay [4] it was 1.3 nM; in assay [5], 800 nM; in assay [7], 0.027 nM. Moreover, in assay [6], the IC50 amounted to 3.67 nM.

B12: NI-607.274_B7 (antibody, V domains shown)
VH: QVQLVESGGGRVQPGRSLRLSCAASGFTFSTHGMHWVRQVPGKGLDWITGITYDGSDQFYADSVKGRFTISRDNSKNMLYLQMNSLRAEDTAVYFCAKDLEWLTNYLDHWGQGTLVTVSS
VL: DVVMTQSPGTLSVSPGERATLSCRASQNINYNLAWYQQKPGQAPRLLIFDASTRATGIPARFTGSGSGTEFTLTISSLQSEDFAVYYCQQSNAWLTFGGGTKVEIK
Turning to B12, the “IC50, pseudovirus entry assay” value in assay [2] was more than 100 µg/mL. In addition, the values for the EC50 in assay [4], in assay [5] and in assay [7] were 0.67 nM, 900 nM and 0.021 nM, respectively. The molecule further gave an IC50 in assay [6] of 7.8 nM. Besides, the binding result in assay [8] is “no binding (tested: 400 nM)”.

B13: NI-607.532_F9 (antibody, V domains shown)
VH: EVQLVESGGNLIQPGGSLRLSCAASGFTVSSNYMSWVRQAPGKGLEWVSVIYSGGSTYYADSVKGRFTISRDNSRNTLYLQMNSLRAEDTAVYFCARDRVVRGVRGNGMDVWGQGTTVTVSS
VL: AIRMTQSPSSLSASVGDRVTITCQASQDINIYLNWYQQRPGKAPKLLIYDASNLETGVPSRFSGSGSGTDFTFTISSLQPEDIATYYCHQYDNLPRTFGQGTKVDIK
On to B13, for which the “IC50, pseudovirus entry assay” value in assay [2] came out at 0.364 µg/mL. The EC50 in assay [3] came to 1000 nM; in assay [4] it was 3.3 nM; in assay [5] it was 1000 nM; in assay [7], 0.0025 nM. Besides, the IC50 is 0.775 nM in assay [6]; ~0.668 µg/mL and ~4.4 nM in assay [1].
